Assay results from patent publication US20150118233A1.

Tests used:
[1] = molecular target: hRSV FTM- NN protein (membrane anchorless form of the Long fusion protein, 70 kDa) (hRSV strain Long); assay: Alphascreen competition: FTM- NN (0.3 nM) bridged by biotinylated Synagis Fab and 101F Fab acceptor beads
[2] = molecular target: hRSV FTM- NN protein (membrane anchorless form of the Long fusion protein, 70 kDa) (hRSV strain Long); assay: SPR (Biacore T100), FTM- NN amine-coupled, 1:1 Langmuir fit
[3] = molecular target: F protein of hRSV strain B-1 (hRSV strain B-1); assay: cell-based or functional assay
[4] = molecular target: F protein of hRSV strain Long (hRSV strain Long); assay: cell-based or functional assay
[5] = molecular target: F protein of Long escape mutant R7C2/1 (K272E in antigenic site II) (hRSV strain Long escape mutant); assay: cell-based or functional assay
[6] = molecular target: F protein of Long escape mutant R7C2/11 (antigenic site II) (hRSV strain Long escape mutant); assay: cell-based or functional assay
[7] = molecular target: F protein of hRSV strain A-2 (hRSV strain A-2); assay: cell-based or functional assay
Chain of F protein of hRSV strain A-2 (hRSV strain A-2) (chain, as listed by the source limits assumed): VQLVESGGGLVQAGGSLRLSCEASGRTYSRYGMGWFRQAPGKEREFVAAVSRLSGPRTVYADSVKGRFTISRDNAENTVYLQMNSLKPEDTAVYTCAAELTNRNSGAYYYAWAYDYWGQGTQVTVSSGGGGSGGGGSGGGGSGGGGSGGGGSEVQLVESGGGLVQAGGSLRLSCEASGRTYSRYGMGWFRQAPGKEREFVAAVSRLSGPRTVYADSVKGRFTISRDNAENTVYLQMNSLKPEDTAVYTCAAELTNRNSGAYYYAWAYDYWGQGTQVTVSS

Chain of F protein of hRSV strain B-1 (hRSV strain B-1) (chain, as listed by the source limits assumed): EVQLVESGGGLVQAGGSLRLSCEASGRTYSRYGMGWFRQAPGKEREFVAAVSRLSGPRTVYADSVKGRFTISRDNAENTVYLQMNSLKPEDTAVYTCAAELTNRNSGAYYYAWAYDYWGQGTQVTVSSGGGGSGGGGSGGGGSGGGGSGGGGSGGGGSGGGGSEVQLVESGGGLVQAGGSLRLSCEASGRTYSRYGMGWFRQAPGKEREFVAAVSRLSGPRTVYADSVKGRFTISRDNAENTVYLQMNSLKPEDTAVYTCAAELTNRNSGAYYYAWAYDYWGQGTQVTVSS
Chain of F protein of Long escape mutant R7C2/1 (K272E in antigenic site II) (hRSV strain Long escape mutant) (chain, as listed by the source): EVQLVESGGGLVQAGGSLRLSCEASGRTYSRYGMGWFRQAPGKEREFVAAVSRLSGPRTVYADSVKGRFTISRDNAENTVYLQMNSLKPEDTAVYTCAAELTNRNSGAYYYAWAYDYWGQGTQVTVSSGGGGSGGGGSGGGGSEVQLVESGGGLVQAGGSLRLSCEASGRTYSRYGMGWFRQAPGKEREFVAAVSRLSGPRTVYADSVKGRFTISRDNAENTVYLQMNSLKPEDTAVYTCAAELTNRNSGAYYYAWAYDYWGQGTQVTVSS

| Substance | IC50 [1] | Kd [2] | koff [2] | kon [2] | Neutralization IC50 (first assay) [3] | Neutralization IC50 (second assay) [3] | RSV neutralization IC50 [3] | Neutralization IC50 (first assay) [4] | Neutralization IC50 (second assay) [4] | RSV neutralization IC50 [4] | neutralization of escape mutant virus, IC50 [5] | neutralization of escape mutant virus, IC50 [6] | RSV neutralization IC50 [7] |
| --- | --- | --- | --- | --- | --- | --- | --- | --- | --- | --- | --- | --- | --- |
| 101F Fab | 1.12 nM |  |  |  |  |  |  |  |  |  |  |  |  |
| Numax Fab (Motavizumab or MEDI-524) | 0.086 nM |  |  |  |  |  |  |  |  |  |  |  |  |
| Synagis® (Palivizumab, humanized monoclonal antibody) |  | 0.64 nM | 0.00018 s⁻¹ | 280000 M⁻¹ s⁻¹ | 2.1 nM | 2.9 nM | 1.7 nM | 7.3 nM | 6 nM | 4 nM | > 200 nM | > 200 nM | 2.5 nM |
